Data published in article PMC3915059 (Archives of biochemistry and biophysics, 2013).

Tests used:
[1] = target: T1, Δ^1-pyrroline-5-carboxylate dehydrogenase (MmP5CDH, ALDH4A1) (Mus musculus, UniProt Q8CHT0); assay: X-ray crystal structure; assay type: biochemical
T1 sequence (Q8CHT0 21-562): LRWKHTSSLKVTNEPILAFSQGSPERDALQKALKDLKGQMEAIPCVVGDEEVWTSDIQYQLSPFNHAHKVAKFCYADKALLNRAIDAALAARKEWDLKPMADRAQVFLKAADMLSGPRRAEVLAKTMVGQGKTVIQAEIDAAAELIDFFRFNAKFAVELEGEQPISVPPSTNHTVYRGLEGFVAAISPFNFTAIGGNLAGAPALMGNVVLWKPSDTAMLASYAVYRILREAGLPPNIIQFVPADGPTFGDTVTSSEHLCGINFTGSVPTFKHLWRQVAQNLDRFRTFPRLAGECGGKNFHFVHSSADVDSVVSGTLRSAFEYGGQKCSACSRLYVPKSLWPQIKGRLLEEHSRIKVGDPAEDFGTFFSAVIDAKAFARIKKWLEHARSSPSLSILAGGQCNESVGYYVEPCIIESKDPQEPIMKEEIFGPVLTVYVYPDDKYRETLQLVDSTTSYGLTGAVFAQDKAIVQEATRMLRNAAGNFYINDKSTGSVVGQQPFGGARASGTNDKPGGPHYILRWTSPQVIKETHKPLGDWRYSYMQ

[2] = target: T1, Δ^1-pyrroline-5-carboxylate dehydrogenase (MmP5CDH, ALDH4A1); assay: steady-state inhibition kinetics, NADH production at […] nm, competitive model; assay type: biochemical
purified protein = substrate: O=CCCC(=O)O; assay: purified protein; settings: NAD+ aldehyde substrate site; 20.0 °C

Molecule: O=CC(=O)O [compound 4, glyoxylate]
- Ki [1]: 0.27 mM

Molecule: N[C@@H](CCC(=O)O)C(=O)O [L-glutamate]
- Ki [2]: 12 mM

B1: Δ^1-pyrroline-5-carboxylate dehydrogenase (MmP5CDH, ALDH4A1) (Mus musculus) (protein)
chain: LRWKHTSSLKVTNEPILAFSQGSPERDALQKALKDLKGQMEAIPCVVGDEEVWTSDIQYQLSPFNHAHKVAKFCYADKALLNRAIDAALAARKEWDLKPMADRAQVFLKAADMLSGPRRAEVLAKTMVGQGKTVIQAEIDAAAELIDFFRFNAKFAVELEGEQPISVPPSTNHTVYRGLEGFVAAISPFNFTAIGGNLAGAPALMGNVVLWKPSDTAMLASYAVYRILREAGLPPNIIQFVPADGPTFGDTVTSSEHLCGINFTGSVPTFKHLWRQVAQNLDRFRTFPRLAGECGGKNFHFVHSSADVDSVVSGTLRSAFEYGGQKCSACSRLYVPKSLWPQIKGRLLEEHSRIKVGDPAEDFGTFFSAVIDAKAFARIKKWLEHARSSPSLSILAGGQCNESVGYYVEPCIIESKDPQEPIMKEEIFGPVLTVYVYPDDKYRETLQLVDSTTSYGLTGAVFAQDKAIVQEATRMLRNAAGNFYINDKSTGSVVGQQPFGGARASGTNDKPGGPHYILRWTSPQVIKETHKPLGDWRYSYMQ
- Km (purified protein): 26 ± 2 µM
- kcat (purified protein): 0.16 s⁻¹
- kcat/Km (purified protein): 6200 M⁻¹ s⁻¹
